Data on one substance can be found in patent US20070224174A1.

The experiment addresses murine Axl receptor tyrosine kinase on precursor natural killer (pNK) cells (mouse) (UniProt Q00993). The experiment is described as follows: cell-based or functional assay.
Sequence of UniProt Q00993 (Q00993 19-888): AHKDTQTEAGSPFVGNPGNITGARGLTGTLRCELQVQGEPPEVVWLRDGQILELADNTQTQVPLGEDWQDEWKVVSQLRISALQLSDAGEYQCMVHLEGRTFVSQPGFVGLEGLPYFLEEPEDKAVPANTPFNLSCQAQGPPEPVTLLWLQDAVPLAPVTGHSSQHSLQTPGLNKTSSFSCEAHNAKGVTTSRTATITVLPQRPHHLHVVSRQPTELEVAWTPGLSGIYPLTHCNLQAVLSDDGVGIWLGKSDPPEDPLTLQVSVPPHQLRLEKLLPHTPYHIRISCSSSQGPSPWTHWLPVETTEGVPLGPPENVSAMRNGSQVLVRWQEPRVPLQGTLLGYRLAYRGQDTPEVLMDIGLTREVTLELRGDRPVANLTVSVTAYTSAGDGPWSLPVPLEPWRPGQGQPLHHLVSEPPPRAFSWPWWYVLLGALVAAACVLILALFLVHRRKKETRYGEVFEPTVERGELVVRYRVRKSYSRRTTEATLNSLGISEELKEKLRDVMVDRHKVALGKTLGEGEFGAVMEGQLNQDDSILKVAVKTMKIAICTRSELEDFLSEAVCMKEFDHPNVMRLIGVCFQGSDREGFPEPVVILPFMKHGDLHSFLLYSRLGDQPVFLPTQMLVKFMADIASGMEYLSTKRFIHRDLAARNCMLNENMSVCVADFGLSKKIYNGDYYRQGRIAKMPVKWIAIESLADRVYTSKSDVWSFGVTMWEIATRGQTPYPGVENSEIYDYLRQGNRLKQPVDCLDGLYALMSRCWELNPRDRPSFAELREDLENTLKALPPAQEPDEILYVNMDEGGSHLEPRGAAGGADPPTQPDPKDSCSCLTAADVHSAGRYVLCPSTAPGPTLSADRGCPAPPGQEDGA

As for “murine Gas6 protein secreted from the murine Gas6 transfectant (NIH3T3 transfected with pcDNA3.1-Gas6) (from UniProt Q61592 28-674) (ligand)”, the degree of differentiation of pNK cells into mNK cells (FACS), co-culture with murine Gas6 transfectant against control groups worked out at 47%.
